Data reported in IntAct's records for PubMed 16266891.

molecular target: pim1_human PIM1 (UniProt P11309)

Substance | effect of a mutation on the interaction
Small ribosomal subunit protein eS19 (Homo sapiens) (from UniProt P39019) R62W | increasing interaction
Small ribosomal subunit protein eS19 (Homo sapiens) (from UniProt P39019) R56Q | increasing interaction
Small ribosomal subunit protein eS19 (Homo sapiens) (from UniProt P39019) R101H | decreasing interaction
